# ± gives the standard deviation.
# Assay: protein stability index of a GFP-peptide fusion (GPS, HEK-293T) (PSI 1-6); higher = more stable
# [1] = treatment: DMSO, c terminus: a fixed tail appended
# [2] = treatment: MLN4924 1 uM, 8 h, c terminus: a fixed tail appended
# 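Further: 24-mer peptide tiles fused after GFP, lentivirally expressed, FACS-sorted into six equal bins by GFP/DsRed ratio, decoded by Illumina sequencing, PSI is the read-weighted mean bin number.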
sequence,measurement,setting,value
ELRDLQVSVESQQVQQVEVEATVK [PRPH],protein stability index,[1],4.88 ± 0.2
same,protein stability index,[2],4.96 ± 0.14
LIDVCKYLGSLQYRVWKKMLASVE [TRIM35],protein stability index,[1],2.75 ± 0.43
same,protein stability index,[2],2.25 ± 0.33
YQQLEDDKLSQKSSSSKLSRSPLK [EPB41L3],protein stability index,[1],4.94 ± 0.6
same,protein stability index,[2],5.04 ± 0.28
GGPGRQTTSPNVLWPTPGHLSPLV [ESR2],protein stability index,[1],2.97 ± 0.22
same,protein stability index,[2],3.15 ± 0.048
SASDGSSFVVARYFPAGNVVNEGF [GLIPR2],protein stability index,[1],2.58 ± 0.29
same,protein stability index,[2],2.58 ± 0.35
GGLEHVPSSSSIHNGDMEKILLDA [BNIP3L],protein stability index,[1],4.85 ± 0.23
same,protein stability index,[2],4.68 ± 0.61
YSHSSTRDGRRDRYSSDTTPLLNG [GOSR1],protein stability index,[1],4.28 ± 0.4
same,protein stability index,[2],4.31 ± 0.11
LVPILIEAARNGKMKFVIGNGKNL [NSDHL],protein stability index,[1],2.52 ± 0.3
same,protein stability index,[2],2.36 ± 0.28
YSALSCTSDASFHPAFLPQRQAIK [KCNG1],protein stability index,[1],2.78 ± 0.23
same,protein stability index,[2],3.18 ± 0.19
QIFANTVDNARIVLQIDNARLAAD [KRT18],protein stability index,[1],2.78 ± 0.28
same,protein stability index,[2],2.75 ± 0.33
DVELLQDLGDIVARSESVLLHMPQ [TRIM43],protein stability index,[1],3.18 ± 0.2
same,protein stability index,[2],3.25 ± 0.35
ESLKEELLSLKQNHEQEVNTLRCQ [KRT33B],protein stability index,[1],4.91 ± 0.099
same,protein stability index,[2],4.78 ± 0.24
SLSLFGCTNIFYEEENPGGCEDEY [ZER1],protein stability index,[1],3.97 ± 0.14
same,protein stability index,[2],4.06 ± 0.23
DPSKRALSRDTVQESYENVDSLES [ZNF263],protein stability index,[1],5.51 ± 0.065
same,protein stability index,[2],5.56 ± 0.18
PRLKEDQPWMVIEGIRQTEYTLTG [FSD1],protein stability index,[1],3.18 ± 0.34
same,protein stability index,[2],3.12 ± 0.19
QLAHMVKEQEETIQRIDENVLGAQ [STX5],protein stability index,[1],4.81 ± 0.45
same,protein stability index,[2],4.96 ± 0.21
NNVVDISVPPTTDGQKPNKLQCCQ [RAB11B],protein stability index,[1],4.72 ± 0.26
same,protein stability index,[2],4.58 ± 0.12
EGGGGGSYFSGQGSDTGASLKLAS [JUNB],protein stability index,[1],4.67 ± 0.12
same,protein stability index,[2],4.72 ± 0.12
SPIKKVRKSLALDIVDEDVKLMMS [MYBL2],protein stability index,[1],3.6 ± 0.34
same,protein stability index,[2],3.68 ± 0.43
VVAVHVVLALFVYVAWNEGSRQWR [VMA21],protein stability index,[1],2.84 ± 0.3
same,protein stability index,[2],2.88 ± 0.16
MERPDKAALNALQPPEFRNESSLA [VMA21],protein stability index,[1],4.77 ± 0.26
same,protein stability index,[2],4.84 ± 0.088
MEEEDPMPRQISRQSSVTESTLYP [TPRG1],protein stability index,[1],5.1 ± 0.32
same,protein stability index,[2],5.26 ± 0.34
AAPRTLAAHPPLPLLPPAMGTEPA [TBX6],protein stability index,[1],4.61 ± 0.43
same,protein stability index,[2],4.57 ± 0.29
QDQPSEAATGGATLAQTISEAAIG [HDAC6],protein stability index,[1],5.09 ± 0.23
same,protein stability index,[2],5.35 ± 0.15
ELMPSSRLWSLSYTKLPSSLQSTG [SLC25A39],protein stability index,[1],2.48 ± 0.13
same,protein stability index,[2],2.47 ± 0.14
LCATHFGEPLEKVASVGNSRPTGQ [KISS1],protein stability index,[1],3.95 ± 0.4
same,protein stability index,[2],4.01 ± 0.23
KMSNSFHGIRPPQLEQPEKMPVLK [RHOBTB3],protein stability index,[1],4.33 ± 0.16
same,protein stability index,[2],4.34 ± 0.068
MEMAKFRYILPVYGICREPVGLVM [RIPK4],protein stability index,[1],2.69 ± 0.39
same,protein stability index,[2],3.08 ± 0.86
VSMEIFFKAWLHNSGTDQEQIHLL [M1AP],protein stability index,[1],2.41 ± 0.52
same,protein stability index,[2],2.21 ± 0.27
AKTIDTSPPVDLFATASAAVPVST [SNAP91],protein stability index,[1],4.37 ± 0.1
same,protein stability index,[2],4.32 ± 0.13
AALDACSGNDPFAPSEGSAEAAPE [SNAP91],protein stability index,[1],5.43 ± 0.25
same,protein stability index,[2],5.46 ± 0.3
KEAAEAIEAEGATAPLTELLHSRN [CTNNB1],protein stability index,[1],5.38 ± 0.28
same,protein stability index,[2],5.28 ± 0.11
EIGTSDQIVPEYQEDSDISSFFC [TRIB1],protein stability index,"treatment: DMSO, c terminus: native",3.38 ± 0.66
same,protein stability index,"treatment: MLN4924 1 uM, 8 h, c terminus: native",4.22 ± 0.82
QKRSRAIHSSDEGEDQAGDEDEDD [WAS],protein stability index,[1],5.69 ± 0.21
same,protein stability index,[2],5.57 ± 0.24
PSRRSENRVVVSGLPPSGSWQDLK [SRSF1],protein stability index,[1],3.89 ± 0.33
same,protein stability index,[2],4.21 ± 0.22
SIKGSSGLGGGSSRTSCRLSGGLG [KRT17],protein stability index,[1],3.39 ± 0.19
same,protein stability index,[2],3.42 ± 0.28
SSVTAAVSGLLVGYELGIISGALL [SLC2A12],protein stability index,[1],2.8 ± 0.2
same,protein stability index,[2],2.82 ± 0.18
SSADDASAWSNIQEAPLQDDSCLN [FAN1],protein stability index,[1],5.26 ± 0.26
same,protein stability index,[2],5.33 ± 0.27
DVGDWRKNIEEKSGMEGRKKMFES [TNNI2],protein stability index,[1],4.3 ± 0.14
same,protein stability index,[2],4.38 ± 0.25
VLKRQRKRRVALSPVTENSTSLSF [MYBL2],protein stability index,[1],3.59 ± 0.22
same,protein stability index,[2],3.5 ± 0.14
NLYSWDDFMELGRSIPDTQLEQVI [ACSBG2],protein stability index,[1],3.25 ± 0.25
same,protein stability index,[2],3.38 ± 0.31
EPEKLYAMPDPAGPDGHLPAVATL [ESRRA],protein stability index,[1],4.65 ± 0.27
same,protein stability index,[2],4.69 ± 0.23
QTQVKIWFQNKRSKFKKLMKQGGA [DLX1],protein stability index,[1],2.36 ± 0.32
same,protein stability index,[2],2.1 ± 0.42
AELLLAARLLGALAARSGAAYGPG [TSPAN10],protein stability index,[1],2.93 ± 0.069
same,protein stability index,[2],2.77 ± 0.73
RLRDAGFRVTLWVHPFVNYNSSRF [MYORG],protein stability index,[1],2.61 ± 0.61
same,protein stability index,[2],2.44 ± 0.15

# Reference: the supplement of paper PMC10567573
